From article PMC6372068 (Nature, 2018)

Assays:
[1] = molecular target: fatty acid synthase (FAS) α subunit, C-terminally fused to GFP (S. cerevisiae) (UniProt P19097); assay: co-IP
[2] = molecular target: T1, fatty acid synthase (FAS) β subunit, C-terminally fused to GFP (S. cerevisiae, UniProt P07149 1-2051); assay: selective ribosome profiling
[3] = molecular target: T1, fatty acid synthase (FAS) β subunit, …; assay: co-IP
[4] = molecular target: T2, methionyl-tRNA synthetase MetRS, C-terminally fused to GFP (S. cerevisiae, UniProt P00958 1-751); assay: selective ribosome profiling
T2 sequence: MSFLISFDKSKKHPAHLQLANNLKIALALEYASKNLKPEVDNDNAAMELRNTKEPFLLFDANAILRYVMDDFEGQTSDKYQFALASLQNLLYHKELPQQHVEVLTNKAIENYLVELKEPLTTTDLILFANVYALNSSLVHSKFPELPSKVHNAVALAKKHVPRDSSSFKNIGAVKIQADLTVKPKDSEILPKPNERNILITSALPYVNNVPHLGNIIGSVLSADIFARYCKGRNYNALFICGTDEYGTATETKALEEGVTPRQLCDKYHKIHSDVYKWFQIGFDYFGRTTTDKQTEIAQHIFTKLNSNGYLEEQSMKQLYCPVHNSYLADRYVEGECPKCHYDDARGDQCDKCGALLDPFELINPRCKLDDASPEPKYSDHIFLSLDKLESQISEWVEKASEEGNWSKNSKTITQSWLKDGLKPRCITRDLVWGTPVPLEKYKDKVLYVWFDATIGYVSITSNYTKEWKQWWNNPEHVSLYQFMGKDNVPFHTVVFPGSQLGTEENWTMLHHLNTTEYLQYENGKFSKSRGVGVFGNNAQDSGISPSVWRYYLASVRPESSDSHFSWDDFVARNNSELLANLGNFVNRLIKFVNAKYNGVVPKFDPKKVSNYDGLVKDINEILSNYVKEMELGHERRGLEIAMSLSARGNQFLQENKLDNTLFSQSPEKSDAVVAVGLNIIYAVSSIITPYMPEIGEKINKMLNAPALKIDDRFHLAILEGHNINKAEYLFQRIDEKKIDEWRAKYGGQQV

T1 sequence (P07149 whole entry, the tested form may be a part): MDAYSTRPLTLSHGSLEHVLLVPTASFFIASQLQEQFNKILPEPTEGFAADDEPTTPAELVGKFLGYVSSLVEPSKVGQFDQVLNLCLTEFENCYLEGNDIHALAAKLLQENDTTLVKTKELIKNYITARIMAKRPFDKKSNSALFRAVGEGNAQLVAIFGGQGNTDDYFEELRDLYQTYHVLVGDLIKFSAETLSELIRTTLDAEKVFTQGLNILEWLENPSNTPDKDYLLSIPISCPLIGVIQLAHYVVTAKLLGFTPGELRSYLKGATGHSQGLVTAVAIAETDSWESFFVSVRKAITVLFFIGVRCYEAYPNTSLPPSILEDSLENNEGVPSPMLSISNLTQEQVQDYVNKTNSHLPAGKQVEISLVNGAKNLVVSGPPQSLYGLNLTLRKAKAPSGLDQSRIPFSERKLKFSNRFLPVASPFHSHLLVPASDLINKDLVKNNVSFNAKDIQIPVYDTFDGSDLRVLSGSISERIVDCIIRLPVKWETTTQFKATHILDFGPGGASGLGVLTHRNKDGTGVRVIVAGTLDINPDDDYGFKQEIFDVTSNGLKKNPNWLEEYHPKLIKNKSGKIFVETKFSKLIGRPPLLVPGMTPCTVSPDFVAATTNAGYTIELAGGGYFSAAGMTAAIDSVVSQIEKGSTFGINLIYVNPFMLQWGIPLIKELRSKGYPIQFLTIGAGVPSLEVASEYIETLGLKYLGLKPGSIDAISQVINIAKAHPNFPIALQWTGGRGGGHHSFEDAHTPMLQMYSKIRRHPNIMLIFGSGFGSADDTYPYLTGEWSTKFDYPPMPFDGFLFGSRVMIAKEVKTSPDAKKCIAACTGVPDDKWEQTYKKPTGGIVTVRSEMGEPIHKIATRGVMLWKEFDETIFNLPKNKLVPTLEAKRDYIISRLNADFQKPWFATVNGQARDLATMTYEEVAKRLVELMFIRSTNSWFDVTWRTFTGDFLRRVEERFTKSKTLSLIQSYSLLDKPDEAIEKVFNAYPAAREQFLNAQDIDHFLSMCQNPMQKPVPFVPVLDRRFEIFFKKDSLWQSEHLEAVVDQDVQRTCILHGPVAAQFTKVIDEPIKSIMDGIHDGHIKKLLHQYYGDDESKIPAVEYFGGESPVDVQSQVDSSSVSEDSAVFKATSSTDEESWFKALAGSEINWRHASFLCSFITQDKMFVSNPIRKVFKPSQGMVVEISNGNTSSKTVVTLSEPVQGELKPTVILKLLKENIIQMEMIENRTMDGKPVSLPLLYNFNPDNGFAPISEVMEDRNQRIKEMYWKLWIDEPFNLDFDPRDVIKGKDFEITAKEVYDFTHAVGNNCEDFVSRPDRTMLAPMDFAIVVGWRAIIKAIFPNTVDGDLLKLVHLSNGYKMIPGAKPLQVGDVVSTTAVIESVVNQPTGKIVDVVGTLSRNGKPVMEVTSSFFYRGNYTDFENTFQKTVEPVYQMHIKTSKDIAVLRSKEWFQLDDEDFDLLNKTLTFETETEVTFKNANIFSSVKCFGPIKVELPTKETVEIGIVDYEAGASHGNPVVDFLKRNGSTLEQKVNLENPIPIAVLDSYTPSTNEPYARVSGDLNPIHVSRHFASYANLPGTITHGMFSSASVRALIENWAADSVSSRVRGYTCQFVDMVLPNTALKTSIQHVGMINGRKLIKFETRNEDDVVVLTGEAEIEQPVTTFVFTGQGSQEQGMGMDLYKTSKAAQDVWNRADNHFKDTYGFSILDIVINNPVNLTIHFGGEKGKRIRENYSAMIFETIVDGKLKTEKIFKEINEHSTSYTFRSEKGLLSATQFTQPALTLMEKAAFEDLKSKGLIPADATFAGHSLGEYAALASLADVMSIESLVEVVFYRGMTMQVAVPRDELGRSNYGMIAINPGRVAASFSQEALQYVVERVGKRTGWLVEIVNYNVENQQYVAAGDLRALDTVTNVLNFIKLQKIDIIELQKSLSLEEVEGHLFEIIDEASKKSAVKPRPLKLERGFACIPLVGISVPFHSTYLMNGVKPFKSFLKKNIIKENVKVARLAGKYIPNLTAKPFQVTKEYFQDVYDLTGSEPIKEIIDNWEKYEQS

Question: How did the stoichiometry N [1] turn out when “FAS β subunit, untagged, of the mature FAS, P07149 1-2051” was run?
Answer: Its stoichiometry N is 1.

B1: nascent FAS α subunit (ribosome-nascent chain complexes) (natural protein)
chain: MKPEVEQELAHILLTELLAYQFASPVRWIETQDVFLKDFNTERVVEIGPSPTLAGMAQRTLKNKYESYDAALSLHREILCYSKDAKEIYYTPDPSELAAKEEPAKEEAPAPTPAASAPAPAAAAPAPVAAAAPAAAAAEIADEPVKASLLLHVLVAHKLKKSLDSIPMSKTIKDLVGGKSTVQNEILGDLGKEFGTTPEKPEETPLEELAETFQDTFSGALGKQSSSLLSRLISSKMPGGFTITVARKYLQTRWGLPSGRQDGVLLVALSNEPAARLGSEADAKAFLDSMAQKYASIVGVDLSSAASASGAAGAGAAAGAAMIDAGALEEITKDHKVLARQQLQVLARYLKMDLDNGERKFLKEKDTVAELQAQLDYLNAELGEFFVNGVATSFSRKKARTFDSSWNWAKQSLLSLYFEIIHGVLKNVDREVVSEAINIMNRSNDALIKFMEYHISNTDETKGENYQLVKTLGEQLIENCKQVLDVDPVYKDVAKPTGPKTAIDKNGNITYSEEPREKVRKLSQYVQEMALGGPITKESQPTIEEDLTRVYKAISAQADKQDISSSTRVEFEKLYSDLMKFLESSKEIDPSQTTQLAGMDVEDALDKDSTKEVASLPNKSTISKTVSSTIPRETIPFLHLRKKTPAGDWKYDRQLSSLFLDGLEKAAFNGVTFKDKYVLITGAGKGSIGAEVLQGLLQGGAKVVVTTSRFSKQVTDYYQSIYAKYGAKGSTLIVVPFNQGSKQDVEALIEFIYDTEKNGGLGWDLDAIIPFAAIPEQGIELEHIDSKSEFAHRIMLTNILRMMGCVKKQKSARGIETRPAQVILPMSPNHGTFGGDGMYSESKLSLETLFNRWHSESWANQLTVCGAIIGWTRGTGLMSANNIIAEGIEKMGVRTFSQKEMAFNLLGLLTPEVVELCQKSPVMADLNGGLQFVPELKEFTAKLRKELVETSEVRKAVSIETALEHKVVNGNSADAAYAQVEIQPRANIQLDFPELKPYKQVKQIAPAELEGLLDLERVIVVTGFAEVGPWGSARTRWEMEAFGEFSLEGCVEMAWIMGFISYHNGNLKGRPYTGWVDSKTKEPVDDKDVKAKYETSILEHSGIRLIEPELFNGYNPEKKEMIQEVIVEEDLEPFEASKETAEQFKHQHGDKVDIFEIPETGEYSVKLLKGATLYIPKALRFDRLVAGQIPTGWNAKTYGISDDIISQVDPITLFVLVSVVEAFIASGITDPYEMYKYVHVSEVGNCSGSGMGGVSALRGMFKDRFKDEPVQNDILQESFINTMSAWVNMLLISSSGPIKTPVGACATSVESVDIGVETILSGKARICIVGGYDDFQEEGSFEFGNMKATSNTLEEFEHGRTPAEMSRPATTTRNGFMEAQGAGIQIIMQADLALKMGVPIYGIVAMAATATDKIGRSVPAPGKGILTTAREHHSSVKYASPNLNMKYRKRQLVTREAQIKDWVENELEALKLEAEEIPSEDQNEFLLERTREIHNEAESQLRAAQQQWGNDFYKRDPRIAPLRGALATYGLTIDDLGVASFHGTSTKANDKNESATINEMMKHLGRSEGNPVIGVFQKFLTGHPKGAAGAWMMNGALQILNSGIIPGNRNADNVDKILEQFEYVLYPSKTLKTDGVRAVSITSFGFGQKGGQAIVVHPDYLYGAITEDRYNEYVAKVSAREKSAYKFFHNGMIYNKLFVSKEHAPYTDELEEDVYLDPLARVSKDKKSGSLTFNSKNIQSKDSYINANTIETAKMIENMTKEKVSNGGVGVDVELITSINVENDTFIERNFTPQEIEYCSAQPSVQSSFAGTWSAKEAVFKSLGVKSLGGGAALKDIEIVRVNKNAPAVELHGNAKKAAEEAGVTDVKVSISHDDLQAVAVAVSTKK
Question: For B1, which “fold enrichment of selected footprints over total ribosome-protected footprints” value [2] is on record?
Answer: The value was ~40 fold.

B2: FAS α subunit, untagged, of the mature FAS (natural protein)
chain: MKPEVEQELAHILLTELLAYQFASPVRWIETQDVFLKDFNTERVVEIGPSPTLAGMAQRTLKNKYESYDAALSLHREILCYSKDAKEIYYTPDPSELAAKEEPAKEEAPAPTPAASAPAPAAAAPAPVAAAAPAAAAAEIADEPVKASLLLHVLVAHKLKKSLDSIPMSKTIKDLVGGKSTVQNEILGDLGKEFGTTPEKPEETPLEELAETFQDTFSGALGKQSSSLLSRLISSKMPGGFTITVARKYLQTRWGLPSGRQDGVLLVALSNEPAARLGSEADAKAFLDSMAQKYASIVGVDLSSAASASGAAGAGAAAGAAMIDAGALEEITKDHKVLARQQLQVLARYLKMDLDNGERKFLKEKDTVAELQAQLDYLNAELGEFFVNGVATSFSRKKARTFDSSWNWAKQSLLSLYFEIIHGVLKNVDREVVSEAINIMNRSNDALIKFMEYHISNTDETKGENYQLVKTLGEQLIENCKQVLDVDPVYKDVAKPTGPKTAIDKNGNITYSEEPREKVRKLSQYVQEMALGGPITKESQPTIEEDLTRVYKAISAQADKQDISSSTRVEFEKLYSDLMKFLESSKEIDPSQTTQLAGMDVEDALDKDSTKEVASLPNKSTISKTVSSTIPRETIPFLHLRKKTPAGDWKYDRQLSSLFLDGLEKAAFNGVTFKDKYVLITGAGKGSIGAEVLQGLLQGGAKVVVTTSRFSKQVTDYYQSIYAKYGAKGSTLIVVPFNQGSKQDVEALIEFIYDTEKNGGLGWDLDAIIPFAAIPEQGIELEHIDSKSEFAHRIMLTNILRMMGCVKKQKSARGIETRPAQVILPMSPNHGTFGGDGMYSESKLSLETLFNRWHSESWANQLTVCGAIIGWTRGTGLMSANNIIAEGIEKMGVRTFSQKEMAFNLLGLLTPEVVELCQKSPVMADLNGGLQFVPELKEFTAKLRKELVETSEVRKAVSIETALEHKVVNGNSADAAYAQVEIQPRANIQLDFPELKPYKQVKQIAPAELEGLLDLERVIVVTGFAEVGPWGSARTRWEMEAFGEFSLEGCVEMAWIMGFISYHNGNLKGRPYTGWVDSKTKEPVDDKDVKAKYETSILEHSGIRLIEPELFNGYNPEKKEMIQEVIVEEDLEPFEASKETAEQFKHQHGDKVDIFEIPETGEYSVKLLKGATLYIPKALRFDRLVAGQIPTGWNAKTYGISDDIISQVDPITLFVLVSVVEAFIASGITDPYEMYKYVHVSEVGNCSGSGMGGVSALRGMFKDRFKDEPVQNDILQESFINTMSAWVNMLLISSSGPIKTPVGACATSVESVDIGVETILSGKARICIVGGYDDFQEEGSFEFGNMKATSNTLEEFEHGRTPAEMSRPATTTRNGFMEAQGAGIQIIMQADLALKMGVPIYGIVAMAATATDKIGRSVPAPGKGILTTAREHHSSVKYASPNLNMKYRKRQLVTREAQIKDWVENELEALKLEAEEIPSEDQNEFLLERTREIHNEAESQLRAAQQQWGNDFYKRDPRIAPLRGALATYGLTIDDLGVASFHGTSTKANDKNESATINEMMKHLGRSEGNPVIGVFQKFLTGHPKGAAGAWMMNGALQILNSGIIPGNRNADNVDKILEQFEYVLYPSKTLKTDGVRAVSITSFGFGQKGGQAIVVHPDYLYGAITEDRYNEYVAKVSAREKSAYKFFHNGMIYNKLFVSKEHAPYTDELEEDVYLDPLARVSKDKKSGSLTFNSKNIQSKDSYINANTIETAKMIENMTKEKVSNGGVGVDVELITSINVENDTFIERNFTPQEIEYCSAQPSVQSSFAGTWSAKEAVFKSLGVKSLGGGAALKDIEIVRVNKNAPAVELHGNAKKAAEEAGVTDVKVSISHDDLQAVAVAVSTKK
Question: B2 was tested. Which “stoichiometry N” value [3] did it give?
Answer: Its value is 1.

B3: nascent GluRS (ribosome-nascent chain complexes) (natural protein)
chain: MPSTLTINGKAPIVAYAELIAARIVNALAPNSIAIKLVDDKKAPAAKLDDATEDVFNKITSKFAAIFDNGDKEQVAKWVNLAQKELVIKNFAKLSQSLETLDSQLNLRTFILGGLKYSAADVACWGALRSNGMCGSIIKNKVDVNVSRWYTLLEMDPIFGEAHDFLSKSLLELKKSANVGKKKETHKANFEIDLPDAKMGEVVTRFPPEPSGYLHIGHAKAALLNQYFAQAYKGKLIIRFDDTNPSKEKEEFQDSILEDLDLLGIKGDRITYSSDYFQEMYDYCVQMIKDGKAYCDDTPTEKMREERMDGVASARRDRSVEENLRIFTEEMKNGTEEGLKNCVRAKIDYKALNKTLRDPVIYRCNLTPHHRTGSTWKIYPTYDFCVPIVDAIEGVTHALRTIEYRDRNAQYDWMLQALRLRKVHIWDFARINFVRTLLSKRKLQWMVDKDLVGNWDDPRFPTVRGVRRRGMTVEGLRNFVLSQGPSRNVINLEWNLIWAFNKKVIDPIAPRHTAIVNPVKIHLEGSEAPQEPKIEMKPKHKKNPAVGEKKVIYYKDIVVDKDDADVINVDEEVTLMDWGNVIITKKNDDGSMVAKLNLEGDFKKTKHKLTWLADTKDVVPVDLVDFDHLITKDRLEEDESFEDFLTPQTEFHTDAIADLNVKDMKIGDIIQFERKGYYRLDALPKDGKPYVFFTIPDGKSVNKYGAKK
Question: How did the “fold enrichment in footprints” value [4] turn out when B3 was run?
Answer: Its value is ≥ 30 fold.
